Assays:
Assay in all cases: cell-based or functional assay
[1] = molecular target: T1, SARS-CoV-2 spike protein, wild type (Wuhan) (SARS-CoV-2, UniProt P0DTC2 14-1273)
[2] = molecular target: SARS-CoV-2 spike protein D614G x Q675H (SARS-CoV-2, UniProt P0DTC2 14-1273)
[3] = molecular target: SARS-CoV-2 spike protein G476S (SARS-CoV-2, UniProt P0DTC2 14-1273)
[4] = molecular target: T1, SARS-CoV-2 spike protein, wild type …; remark: listed apart in the source
[5] = molecular target: T2, SARS-CoV-2 spike protein D614G (SARS-CoV-2, UniProt P0DTC2 14-1273)
[6] = molecular target: T3, SARS-CoV-2 spike protein V483A (SARS-CoV-2, UniProt P0DTC2 14-1273)
[7] = molecular target: T4, spike protein of live SARS-CoV-2 (2019-nCoV/IDF0372/2020) (SARS-CoV-2, UniProt P0DTC2 14-1273)
[8] = molecular target: T1, SARS-CoV-2 spike protein, wild type …; remark: listed apart in the source
[9] = molecular target: T4, spike protein of live SARS-CoV-2 …; remark: listed apart in the source
[10] = molecular target: SARS-CoV-2 spike protein K417E (SARS-CoV-2, UniProt P0DTC2 14-1273)
[11] = molecular target: SARS-CoV-2 spike protein variant B.1.351 (SARS-CoV-2, UniProt P0DTC2 14-1273)
[12] = molecular target: SARS-CoV-2 spike protein F486V (SARS-CoV-2, UniProt P0DTC2 14-1273)
[13] = molecular target: SARS-CoV-2 spike protein P479S (SARS-CoV-2, UniProt P0DTC2 14-1273)
[14] = molecular target: SARS-CoV-2 spike protein S477N (SARS-CoV-2, UniProt P0DTC2 14-1273)
[15] = molecular target: SARS-CoV-2 spike protein T478I (SARS-CoV-2, UniProt P0DTC2 14-1273)
[16] = molecular target: T1, SARS-CoV-2 spike protein, wild type …; remark: listed apart in the source
[17] = molecular target: SARS-CoV-2 spike protein E484K (SARS-CoV-2, UniProt P0DTC2 14-1273)
[18] = molecular target: SARS-CoV-2 spike protein N501Y (SARS-CoV-2, UniProt P0DTC2 14-1273)
[19] = molecular target: SARS-CoV-2 spike protein Y453F (SARS-CoV-2, UniProt P0DTC2 14-1273)
[20] = molecular target: T2, SARS-CoV-2 spike protein D614G; remark: listed apart in the source
[21] = molecular target: SARS-CoV-2 spike protein F490S (SARS-CoV-2, UniProt P0DTC2 14-1273)
[22] = molecular target: SARS-CoV-2 spike protein Q493K (SARS-CoV-2, UniProt P0DTC2 14-1273)
[23] = molecular target: SARS-CoV-2 spike protein N439K (SARS-CoV-2, UniProt P0DTC2 14-1273)
[24] = molecular target: T3, SARS-CoV-2 spike protein V483A; remark: listed apart in the source

B1: ALE058 (designed binder)
chain: MRGSHHHHHHGSDLGKKLLEAARAGQDDEVRELLKAGADVNAKDYFSHTPLHLAARNGHLKIVEVLLKAGADVNAKDFAGKTPLHLAANEGHLEIVEVLLKAGADVNAQDIFGKTPADIAADAGHEDIAEVLQKAAGSPTPTPTTPTPTPTTPTPTPTGSDLGKKLLEAARAGQDDEVRELLKAGADVNAKDYFSHTPLHLAARNGHLKIVEVLLKAGADVNAKDFAGKTPLHLAANEGHLEIVEVLLKAGADVNAQDIFGKTPADIAADAGHEDIAEVLQKAAGSPTPTPTTPTPTPTTPTPTPTGSDLGKKLLQAARAGQLDEVRELLKAGADVNAKDQEGITPLHVAAHQGHLEIVEVLLKAGADVNAKDVWGRTPLHLAAWRGHLEIVEVLLKAGADVNAKDHAGATPLHAAALSGHLEIVEVLLKAGADVNAQDKSGKTPADLAARAGHQDIAEVLQKAAGSPTPTPTTPTPTPTTPTPTPTGSDLGHKLLLAAQAGQDDEVRILLAAGADVNAKDVFGQTPLHVAAVAGHLEIVEVLLKAGADVNAKDSIGYTPLHHAARVGHLEIVEVLLKAGADVNAQDWIGITPADLAAFEGHEDIAEVLQKAAGSPTPTPTTPTPTPTTPTPTPTGSDLGQKLLHAAQYGQDDEVRILLAAGADVNAKDKQGNTPLHIAAFHGHLEIVEVLLKAGADVNAKDQWGLTPLHLAAAWGHLEIVEVLLKAGADVNAQDNYGQTPADLAAESGHEDIAEVLQKAA
[1]
  IC50 (read off the curve), SARS-CoV-2 VSV pseudotype virus, no competitor: ~0.1 nM
[2]
  Potency of inhibition of SARS-CoV-2 spike protein variants (IC50): 0.0224 nM
[3]
  Potency of inhibition of SARS-CoV-2 spike protein variants (IC50): 0.0145 nM
[4]
  Potency of inhibition of SARS-CoV-2 spike protein variants (IC50): 0.00548 nM
[5]
  Potency of inhibition of SARS-CoV-2 spike protein variants (IC50): 0.00464 nM
[6]
  Potency of inhibition of SARS-CoV-2 spike protein variants (IC50): 0.0324 nM
[7]
  IC50 LV (live virus cytopathic effect assay): 0.1 nM

B2: vS07_23E04 (designed binder)
chain: MRGSHHHHHHGSDLGKKLLQAARAGQLDEVRELLKAGADVNAKDQEGITPLHVAAHQGHLEIVEVLLKAGADVNAKDVWGRTPLHLAAWRGHLEIVEVLLKAGADVNAKDHAGATPLHAAALSGHLEIVEVLLKAGADVNAQDKSGKTPADLAARAGHQDIAEVLQKAA
notes: also called R3c
[8]
  VSV-SARS-CoV-2 IC50: < 2 nM
[9]
  protection of Vero E6 cells from SARS-CoV-2 cytopathic effect: 20 nM
[10]
  VSV Pseudotype Neutralization Assay IC50: 3.6 ng/mL
[11]
  VSV Pseudotype Neutralization Assay IC50: > 100 ng/mL
[12]
  VSV Pseudotype Neutralization Assay IC50: > 100 ng/mL
[13]
  VSV Pseudotype Neutralization Assay IC50: 27.6 ng/mL
[14]
  VSV Pseudotype Neutralization Assay IC50: 9 ng/mL
[15]
  VSV Pseudotype Neutralization Assay IC50: 16.7 ng/mL
[16]
  VSV Pseudotype Neutralization Assay IC50: 13.3 ng/mL
[17]
  VSV Pseudotype Neutralization Assay IC50: > 100 ng/mL
[18]
  VSV Pseudotype Neutralization Assay IC50: 27.8 ng/mL
[19]
  VSV Pseudotype Neutralization Assay IC50: 3.3 ng/mL
[20]
  VSV Pseudotype Neutralization Assay IC50: 23 ng/mL
[21]
  VSV Pseudotype Neutralization Assay IC50: 8.1 ng/mL
[22]
  VSV Pseudotype Neutralization Assay IC50: 45.8 ng/mL
[23]
  VSV Pseudotype Neutralization Assay IC50: 12.9 ng/mL
[24]
  VSV Pseudotype Neutralization Assay IC50: 21.3 ng/mL

B3: vS07_12C06 (designed binder)
chain: MRGSHHHHHHGSDLGKKLLQAARAGQLDEVRELLKAGADVNAKDREGKTPLHVAAQEGHLEIVEVLLKAGADVNAKDVWGRTPLHLAAWIGHLEIVEVLLKAGADVNAKDVSGATPLHAAALHGHLEIVEVLLNAGADVNAQDKSGKTPADLAARAGHQDIAEVLQKAA
notes: also called R1b; Rb1
[8]
  VSV-SARS-CoV-2 IC50: < 2 nM
[9]
  protection of Vero E6 cells from SARS-CoV-2 cytopathic effect: 2 nM
[10]
  VSV Pseudotype Neutralization Assay IC50: 1 ng/mL
[11]
  VSV Pseudotype Neutralization Assay IC50: 26 ng/mL
[12]
  VSV Pseudotype Neutralization Assay IC50: > 100 ng/mL
[13]
  VSV Pseudotype Neutralization Assay IC50: 2.3 ng/mL
[14]
  VSV Pseudotype Neutralization Assay IC50: 2 ng/mL
[15]
  VSV Pseudotype Neutralization Assay IC50: 3.1 ng/mL
[16]
  VSV Pseudotype Neutralization Assay IC50: 2.1 ng/mL
[17]
  VSV Pseudotype Neutralization Assay IC50: 10.2 ng/mL
[18]
  VSV Pseudotype Neutralization Assay IC50: 4.8 ng/mL
[19]
  VSV Pseudotype Neutralization Assay IC50: 5.9 ng/mL
[20]
  VSV Pseudotype Neutralization Assay IC50: 6.2 ng/mL
[21]
  VSV Pseudotype Neutralization Assay IC50: 1.7 ng/mL
[22]
  VSV Pseudotype Neutralization Assay IC50: 28.2 ng/mL
[23]
  VSV Pseudotype Neutralization Assay IC50: 5.3 ng/mL
[24]
  VSV Pseudotype Neutralization Assay IC50: 8.4 ng/mL

B4: vS07_29B10 (designed binder)
chain: MRGSHHHHHHGSDLGKKLLQAARAGQLDEVRELLKAGADVNAKDREGITPLHLAAQHGHLEIVEVLLKAGADVNAKDVWGRTPLHLAAWQGHLEIVEVLLKAGADVNAKDLAGATPLHVAALYGHLEIVEVLLKAGADVNAQDKSGKTPADLAARAGHQDIAEVLQKAA
notes: also called R3b
[8]
  VSV-SARS-CoV-2 IC50: < 2 nM
[9]
  protection of Vero E6 cells from SARS-CoV-2 cytopathic effect: 20 nM
[10]
  VSV Pseudotype Neutralization Assay IC50: 1.8 ng/mL
[11]
  VSV Pseudotype Neutralization Assay IC50: 76 ng/mL
[12]
  VSV Pseudotype Neutralization Assay IC50: > 100 ng/mL
[13]
  VSV Pseudotype Neutralization Assay IC50: 7.2 ng/mL
[14]
  VSV Pseudotype Neutralization Assay IC50: 3 ng/mL
[15]
  VSV Pseudotype Neutralization Assay IC50: 11.2 ng/mL
[16]
  VSV Pseudotype Neutralization Assay IC50: 7.2 ng/mL
[17]
  VSV Pseudotype Neutralization Assay IC50: 64.2 ng/mL
[18]
  VSV Pseudotype Neutralization Assay IC50: 9.1 ng/mL
[19]
  VSV Pseudotype Neutralization Assay IC50: 10.9 ng/mL
[20]
  VSV Pseudotype Neutralization Assay IC50: 11.9 ng/mL
[21]
  VSV Pseudotype Neutralization Assay IC50: 2.3 ng/mL
[22]
  VSV Pseudotype Neutralization Assay IC50: 30 ng/mL
[23]
  VSV Pseudotype Neutralization Assay IC50: 7.3 ng/mL
[24]
  VSV Pseudotype Neutralization Assay IC50: 21.8 ng/mL

Source: patent US20220235103A1 (Molecular Partners, published 2022)
